Key:
[1] = target: GPC3 on the surface of hepatic cancer cell lines (SK-Hep1-GPC3 transfectant, HepG2, Huh7, Hep3B, SNU398) (human) (UniProt P51654); experiment: FACS, SK-Hep1-GPC3 #9 cells; lower left panel
[2] = target: GPC3 on the surface of hepatic cancer cell lines (SK-Hep1-GPC3 transfectant, HepG2, Huh7, Hep3B, SNU398) (human) (UniProt P51654); experiment: FACS, HepG2 cells; lower right panel
[3] = target: GPC3 on the surface of hepatic cancer cell lines (SK-Hep1-GPC3 transfectant, HepG2, Huh7, Hep3B, SNU398) (human) (UniProt P51654); experiment: FACS, SK-Hep1-GPC3 #9 cells; upper right panel
[4] = target: GPC3 on the surface of hepatic cancer cell lines (SK-Hep1-GPC3 transfectant, HepG2, Huh7, Hep3B, SNU398) (human) (UniProt P51654); experiment: FACS, SK-Hep1-GPC3 cells; lower right panel

A Mean, FL2-H [1] of 5.79, a Mean, FL2-H [2] of 2.87 and a Mean, FL2-H [3] of 4.76 were found for hIgG (antibody) in this work. It also gave a Mean, FL2-H [4] of 3.49.
